Substrate: CC(C)(OO)c1ccccc1
Assay: purified protein
Assay type: biochemical, Corynebacterium glutamicum
Conditions: 40 μM Lpd, 5 μM SucB, 0.2 mM NADPH, 0.1 μM Ohr, 50 mM sodium phosphate pH 7.4, 50 mM NaCl, 1 mM DTPA, 37°C

B1: Ohr (Corynebacterium glutamicum ATCC 13032) (protein)
chain: MAIESIAYTSEALSTGSGRLGHVRSTDGALEFEMTPPKALGGSGEGTNPEQLFAVGYAACFHSAMHSVARSRKITLEDTAVGARVSIGPNGAGGFEIAVELEVSIPQLPQAEAQELADAAHQVCPYSNATRGNISVTVSVIDEEA
notes: N-terminal His6 tag (pET-28a), about 17 kDa on gel, E. coli BL21(DE3)
**Q.** Which Km does the source give for B1 here?
**A.** 17.48 ± 0.78 µM

**Q.** What about the kcat of the same protein?
**A.** 5.48 s⁻¹

**Q.** What about the kcat/Km of the same protein?
**A.** 314300 ± 1420 M⁻¹ s⁻¹
